Measured values from article PMC5980995, “An allostatic mechanism for M2 pyruvate kinase as an amino-acid sensor” (Biochemical Journal, 2018).

Molecular target: the molecule itself
Assay: cell-based or functional assay

B1: M2 isoenzyme of pyruvate kinase (M2PYK), human, N-terminal His6 tag (enzyme)
chain: not shown
half-life of the loss of enzyme activity (LDH-coupled assay) after dilution from 20 mg/ml to 0.002 mg/ml in PBS-CM pH 7.4, taken as dissociation of the tetramer: ~15 min
